{
  "source": "the DeepSol protein solubility set",
  "data": [
    {"assay": "soluble on expression in E. coli; label from the status in PepcDB or PDB records", "values": [
      {"sequence": "MITLTGHTLTIEEMKRLLLEGEGVTACPTSMQKVAECREVVEKIVENGKVVYGITTGFGKFSDVLIQKDDVKALQHNLIQSHACGIGDPFPEEVSRGMLILRANTMLKGVSGVRPLVVNMLLEFVNRKIHPVVPQQGSLGASGDLAPLSHLALILLGEGEVFYKGKRVHAMVALTEEGLEPIELEAKEGLALINGTQAMTAQGVLSYIEAEATAYQAELIASMTIEGLQGIIDAFDENVHKARGYKEQVEVASRIRDILHDSKLTTKQGELRVQDAYSLRCIPQVHGASWQVLNYVKEKLEIEMNAATDNPLIFDGGEKVISGGNFHGQPIAFAMDFLKVGMAELANISERRIERLVNPQLNDLPPFLSPEPGLQSGAMIMQYAAASLVSENKTLAHPASVDSIPSSANQEDHVSMGTIASRHAHQIIQNVRRVLSIEMICAMQAAEYRGIENMSTVTKSFYHQGRQQVPSITNDRIFSTDIENITHWLKTNYSIKERLDVNAAL", "soluble on expression in E. coli": "not soluble"},
      {"sequence": "MITMKHVILVGDGMADYPLDELDGKTPLQVADKPNMDQLAGMGACGLLRTVPEGMEAGSDVANLSIMGYDPRRYYTGRGPLEAASIGVELGDDDVAFRCNLINADERIVDFNAGHIETAEASSLIDALNHELETRGRFYAGVSYRNLFVIEGRGYTSVRVEPPHDIVGESVAAHLPSGSEEADHIRELMLESAGVLRSHEVNLKRESMGKRPATMIWLWGQGLRPSMEPFSERYGIRGATITAVDLIKGLGVYAGLENIHVPGATGYLDTDYRAKGRYAAGALEEYDFLYVHVEAPDEAGHAGDAEEKIRAIENIDRFVLGRLLDALSDHEHRIAVLPDHPTPIEIRTHVPDPVPCILAGDGVDADQVKSYDEFTVREGSLGTWEAHRLMEIMMDPAARLRQLEHHHHHH", "soluble on expression in E. coli": "not soluble"},
      {"sequence": "MITMTEVKGKTANESRVFKTSRVFPTDLNDHNTLFGGKILSEMDMVASISASRHSRKECVTASMDWVDFLHPVRSSDCVSYESFVIWTGRTSMEVFVKVVSEYLISGEKRIAATSFVTFVALSKENNPVPVPRVIPDTEEEKESHRIAVLRAEQRHIRKAESKKVATLLTF", "soluble on expression in E. coli": "soluble"},
      {"sequence": "MIVIKTYQEENASALWDVFFNTVRKVNRKDYSNEQVTAWAPESFDTDVWKNKMQSLNPFIAEIDGVIVGYSDLQDDGLIDHFFCHYQHQGKGVGSALMTHILELAKERKLPRVYSHVSITAKPFYERFGFTVVKPQCIDVRGEQLINYVMERQ", "soluble on expression in E. coli": "not soluble"},
      {"sequence": "MIVMTKQQYQEILEHSRNALPNEACGLLGGRIENGVKYVEKVYLLRNIDESPEHFSMNPKEQFAAVKDMRNNGWELLGNFHSHPATPSRPSEEDIRLAFDPKASYLILSLKDDTPVLKSFNISSGQATQEELSIVGEEALEHHHHHH", "soluble on expression in E. coli": "soluble"},
      {"sequence": "MIVPALIGSLPRPIGLAKKIELYSIGRLSEEKLEEAYRSYTRKAFENLKKARIKVITDGLYRWDDIFNPLIRFIDGVEVNGLFKFYENNFFYRSPVVRGELSLKENPLPGWISIAQEIKEDVYPEAELKAVLPGPVTLAYHSINEYYKDLNELTEAYATVLRELIKELDVKIMELQEPSLAAELSKATRESEEHVSKEVAKKVIEDLARVKKLWVVTYFGTPQVVPKDVILNIDLIEGNVPDEVKGEVGLGIVNARETKMERADRLKDKLRKYIRKFEKVYVTPNTLLDFLPERVAWKKLKLLGRLGGELEHHHHHH", "soluble on expression in E. coli": "not soluble"},
      {"sequence": "MIVTTTSGIQGKEIIEYIDIVNGEAIMGANIVRDLFASVRDVVGGRAGSYESKLKEARDIAMDEMKELAKQKGANAIVGVDVDYEVVRDGMLMVAVSGTAVRI", "soluble on expression in E. coli": "soluble"},
      {"sequence": "MIYLFSHAGLRDLRDFIDRSTLFAFDLDGTLAPIVSDPAGIMIPPDVHERLVRLNGTASVAVVTGRARVDAARHLGFAPRFLVGNHGAEGLPGADAAEREFIGLCRGWMTQLGELLPEGEGTGIVMEDKSATLSLHYRNAPDRENAHQRILAAVSRLLPAPRRVSGKLVENLVPAAAPHKGDALRCIMRHLGCARALFVGDDVTDEDVFRLGDEAIFGIRVGNSGGSAARYFIRGQDEMAPLLDEILAVLLEHHHHHH", "soluble on expression in E. coli": "soluble"},
      {"sequence": "MKAINIALDGPAAAGKSTIAKRVASELSMIYVDTGAMYRALTYKYLKLNKTEDFAKLVDQTTLDLTYKADKGQCVILDNEDVTDFLRNNDVTQHVSYVASKEPVRSFAVKKQKELAAEKGIVMDGRDIGTVVLPDADLKVYMIASVEERAERRYKDNQLRGIESNFEDLKRDIEARDQYDMNREISPLRKADDAVTLDTTGKSIEEVTDEILAMVSQIK", "soluble on expression in E. coli": "soluble"},
      {"sequence": "MKALVAVSAVAVVALLGVSSAQADPEADPGAGEANYGGPPSSPRLVDHTEWAQWGSLPSLRVYPSQVGRTASRRLGMAAADAAWAEVLALSPEADTAGMRAQFICHWQYAEIRQPGKPSWNLEPWRPVVDDSEMLASGCNPGSPEESF", "soluble on expression in E. coli": "soluble"},
      {"sequence": "MKAMHMEQKIYKAKFSEYQLADNFINFNYLLKFKLGPEDVRAKGAFSTIFESTMLDWDLQLHKQFAGHILHSRESNWVISLNGSGVRDSYPPLHKLYFKVKAMGSDGSIKKSLKYFIDGLPIAPAERRGRMDHRSYTTLQNTQFERDLSTLIAEAKKKAQTIQLETRLEFKKNDLVDMKYLLGNGAPNMPDSLDYYFDAITNKSRHDLKLKTSDGMHFVMTNKEIVCLASQFFRQHLKDTTTEYTVGRADSVQSIDICLTYMITGIYKKPALLSPKLAFEIFALAMQWKVFEPKVLKNSIEKHCCEELQKNYEDIMYVCNMLIIADDAQFANVQNCCIATLVFYHAHDFIRIFVIGNHPLKERFSRRQEFLRPSLTMQVKRAFAASNESKCFIKFLPAIGED", "soluble on expression in E. coli": "not soluble"},
      {"sequence": "MKCLKPSIGPVRGTDGDWKNIMKQFLRCGLAFAWSSVLGSSIAMDSLFGLPVRSTVKANLGALREGYVNIAVHGHSPLLVSEIVKQGRSREFIQMAKEKGALGIQFYGICCSGLSAMYRYGGVIPLSNAIGAELVLGTGAIDLWVADVQDVFPSIMDVAKCFKTTVVTTSDSARLPGAEHYAYDHHHSNLAQTQELAKTIVKRAIESFEARRDVPVFIPNYEVDAEIGFSVEYATSRFGSMDVIAKALQEGKIRGVVNLVGCNNPRVMYEKAIADVARKLIENNILVLTNGCASFPLLKLGYCNVKALEWTGKELREFLEPDLPPVWHMGECLDNARASAFFRALADSLKKDIKDMPFAFASPEWSNEKGVGAALGFRLLGINSYHSVYPPVQGSKNVMKYLFEDTEKTLGAVMIVEVDPLKLADRIISDIDEKRKALMWK", "soluble on expression in E. coli": "not soluble"},
      {"sequence": "MKCLVTGGNVKVLGKAVHSLSRIGDELYLEPLEDGLSLRTVNSSRSAYACFLFAPLFFQQYQAATPGQDLLRCKILMKSFLSVFRSLAMLEKTVEKCCISLNGRSSRLVVQLHCKFGVRKTHNLSFQDCESLQAVFDPASCPHMLRAPARVLGEAVLPFSPALAEVTLGIGRGRRVILRSYHEEEADSTAKAMVTEMCLGEEDFQQLQAQEGVAITFCLKEFRGLLSFAESANLNLSIHFDAPGRPAIFTIKDSLLDGHFVLATLSDTDSHSQDLGSPERHQPVPQLQAHSTPHPDDFANDDIDSYMIAMETTIGNEGSRVLPSISLSPGPQPPKSPGPHSEEEDEAEPSTVPGTPPPKKFRSLFFGSILAPVRSPQGPSPVLAEDSEGEGLEHHHHHH", "soluble on expression in E. coli": "not soluble"},
      {"sequence": "MKCPRCGREYISSIPPFCICGEELEITYDYSSVDVRKWKRRNPGVWRYKELLPEVKKIITLQEGGTPLIKARISEKINVDVYIKDETRNPTGSFRDRLATVAISYGLPYASNGFIVASDGNAAASVAAYSARAEKECFVVVPRKVDKGKLIQMIAFGARIIRYGDSVDEAIEYARELSKLNGLYNVTPEDNIIGLEGQKTIAFELWEEINPTHVIVPTGSGSYIYSIYKGFKELIKIGVLEKMPRLIAVQTERCNPIAAEILGLKKECKETKALGLYVKNPVMKSRVIRAIKESGGTAVVVNENDIITGEKLLANEGIFAELSSAVVMPALLSLVEKGIIEKGDKVVLVVTGSGLKIGEGGREKFSIGGTKLEILKILEEREMYAYEIWQALGKPLKYQAVHQHIKELQELGLIKEAYRKGKRIYYKLTERGRRLIENLE", "soluble on expression in E. coli": "soluble"},
      {"sequence": "MKCVFVTVGTTSFDDLIACVSAPDSLQKIESLGYNRLILQIGRGTVVPEPFSTESFTLDVYRYKDSLKEDIQKADLVISHAGAGSCLETLEKGKPLVVVINEKLMNNHQLELAKQLHKEGHLFYCTCSTLPGLLQSMDLSTLKCYPPGQPEKFSAFLDKVVGLQK", "soluble on expression in E. coli": "soluble"},
      {"sequence": "MKDGEAATGQAASRPKRADARRNEKNLLDAAAAVFVRSGVEAPVRDIAAEAGVGTATIYRHFPTRADLIIGVYRHQVEACAEAGPALLASSPTPYAALAGWIDLFVDFLVTKHGLAAVLQSDSAGFETLHAYFLDRLVPVCTDLLAAATDSGEIDTDVPPLALMRGVGNLCIGAETPNPSYDARQLVRILIAGLRAAD", "soluble on expression in E. coli": "not soluble"},
      {"sequence": "MKDIIIASFYKFIPLNDFESLREPILTKMHEIGIKGTIILAHEGVNGGFAGNREQMNVFYDYLRSDSRFADLHFKETYDNKNPFDKAKVKLRKEIVTMGVQKVDPSYNAGTYLSPEEWHQFIQDPNVILLDTRNDYEYELGTFKNAINPDIENFREFPDYVQRNLIDKKDKKIAMFCTGGIRCEKTTAYMKELGFEHVYQLHDGILNYLESIPESESLWEGKCFVFDDRVAVDQKLDRVYPQLPQDYKYEREQK", "soluble on expression in E. coli": "not soluble"},
      {"sequence": "MKDLIIIGAGQAGLTMGYYLKQEGYNFLLLEAGKRVGDSWRNRYDSLQLFTPRSYSSLPGMALIGEKNEFPYKDEIATYLEEYARHFQLPVQLQTEVLKIKKEKEIFELHTPTEILQTKKVIIASGAFQQPFIPSVSANLSSHIFQIHSSQYKSPSQIPKGKVLVVGGGNSGMQIAVELAKTHEVTVSISHPLTFLPLQLFGKSIFNLLEKVGLLYAEINTKRGRWFQKRKDPIFGFEGKKLIRNGAIKLQEKVVSASRNNIMFQNGDTYSAESIIWSTGFVQNYNWIEIEQAVNEKGFPNHIKGISPVKGLYYIGLPLEHHHHHH", "soluble on expression in E. coli": "not soluble"},
      {"sequence": "MKDMKTIEGIIVVTTPEIPGYKVVEVKGVARGGTVRATHIGRDIMALLRNLKGGEVKEYTEMMAEAREEALRRMALHAKELGANAVVNFRFATSNLGGSMAEIYAYGTAVVVERVEK", "soluble on expression in E. coli": "soluble"},
      {"sequence": "MKDPKAPIGVFDSGVGGLTVLKALRRLLPREEFLYFGDTARVPYGGKPLAMVRRFAWEIAGFLLRQGVKAIVVACNTASSAALPDLAEDLSVPVFGVVEPVARAVRGFRKVGLIGTQATVESGAYPRYVDLACAKACPLFVPLVEEGLWDDPVALLVARHYLEDAPKDLEALILGCTHYPFLKGAIGAVLPGVALLDSAELTAQEVARALEAEGLLNPEGRGRTFHLVTGDPEAYRALAERLGERVEAVRRVSLEEL", "soluble on expression in E. coli": "soluble"},
      {"sequence": "MKDRYLIIDGYNMIGQSQELSRIAQDNLEEAREQLLIAIANYNAVIADEVVCVFDAYEQSGAPTEYMYHGVKTIFTKEKETADSYIERYVYDLYDKHTRHITVVTSDMSEQHAIFGAGAYRVSSREMWRDLRENEISVSKKLDGFNEQKPRTRIELSNEILEEFEKLRRGDNHLEHHHHHH", "soluble on expression in E. coli": "not soluble"},
      {"sequence": "MKDYRYALPAMMSVRKGESRYFNRGDQHLMNEILARVRAEGKIRLRDIDKKNKESLGNWWNTGPGRRAFEQLYMQGDLMICERNGMEKVYDLTERCLPENIDLSLPTLYEYAQYLFNNTLRAHGAFTWKQLVHLKKNDLKETMRVVLKEQIDAGVVSAIKLADGQNLYVDVTAIEQQLDTDFGLKILSPFDNSLIHRDRLTSLFEFDYRIECYLPAAKRVFGYFCLPILYQNELVGRIDCKAHRTVKELEVISLHLEKTVKDKEHFFFELDQELKRFAAFNQCSTVNDKVVKLIRSKLLEHHHHHH", "soluble on expression in E. coli": "not soluble"}
    ]}
  ]
}
